Results as given in patent US20250051474A1, “ANTI-CD97 ANTIBODIES AND ANTIBODY-DRUG CONJUGATES” (New York University, priority 2023, published 2025).

How the values were obtained:
[1] = target: T1, CD97 GAIN mutant T524K expressed on ExpiCHO cells (human, UniProt P48960 21-835); assay: cell-based binding assay: CD97 GAIN mutant T524K transiently expressed on ExpiCHO cells, A8 Fab titrated, flow cytometry MFI; lower panel
T1 construct: numbering of isoform 1; whole entry named
T1 sequence: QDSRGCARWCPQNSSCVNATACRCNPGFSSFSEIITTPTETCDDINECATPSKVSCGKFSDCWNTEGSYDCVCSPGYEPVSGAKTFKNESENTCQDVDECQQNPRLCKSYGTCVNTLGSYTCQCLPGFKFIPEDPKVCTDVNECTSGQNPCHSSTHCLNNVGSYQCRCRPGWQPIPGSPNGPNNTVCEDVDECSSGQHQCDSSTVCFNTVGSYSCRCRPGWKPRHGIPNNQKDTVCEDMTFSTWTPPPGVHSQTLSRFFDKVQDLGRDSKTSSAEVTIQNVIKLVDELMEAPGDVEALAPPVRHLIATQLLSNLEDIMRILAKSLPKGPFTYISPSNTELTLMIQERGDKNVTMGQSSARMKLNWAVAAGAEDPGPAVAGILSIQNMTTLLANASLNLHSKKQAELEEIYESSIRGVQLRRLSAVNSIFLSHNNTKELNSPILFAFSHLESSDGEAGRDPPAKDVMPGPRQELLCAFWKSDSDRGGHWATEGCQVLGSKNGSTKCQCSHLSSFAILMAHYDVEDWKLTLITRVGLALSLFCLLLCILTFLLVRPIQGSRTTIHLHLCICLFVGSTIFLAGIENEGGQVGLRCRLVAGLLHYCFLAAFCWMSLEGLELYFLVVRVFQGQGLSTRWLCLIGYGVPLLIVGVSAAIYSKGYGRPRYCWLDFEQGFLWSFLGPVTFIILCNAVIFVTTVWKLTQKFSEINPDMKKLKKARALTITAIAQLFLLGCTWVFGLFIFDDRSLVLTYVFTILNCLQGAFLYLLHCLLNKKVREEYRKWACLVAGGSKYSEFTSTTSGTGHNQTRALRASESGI
Method: (§1) KD values were determined from the curve fitting of a 1:1 binding model.

[2] = target: T2, CD97 (ADGRE5) isoform 1 ectodomain, purified and biotinylated (human, UniProt P48960 21-552, limits assumed, biotinylated in vitro using the BirA enzyme); assay: bead-based binding assay: biotinylated CD97 isoform 1 on streptavidin beads, Fab titrated, flow cytometry MFI, 1:1 fit; EXPERIMENT 1
T2 construct: the whole entry for isoform 1 is named here; also called CD97 isoform 1; Biotinylated CD97 isoform 1
T2 sequence: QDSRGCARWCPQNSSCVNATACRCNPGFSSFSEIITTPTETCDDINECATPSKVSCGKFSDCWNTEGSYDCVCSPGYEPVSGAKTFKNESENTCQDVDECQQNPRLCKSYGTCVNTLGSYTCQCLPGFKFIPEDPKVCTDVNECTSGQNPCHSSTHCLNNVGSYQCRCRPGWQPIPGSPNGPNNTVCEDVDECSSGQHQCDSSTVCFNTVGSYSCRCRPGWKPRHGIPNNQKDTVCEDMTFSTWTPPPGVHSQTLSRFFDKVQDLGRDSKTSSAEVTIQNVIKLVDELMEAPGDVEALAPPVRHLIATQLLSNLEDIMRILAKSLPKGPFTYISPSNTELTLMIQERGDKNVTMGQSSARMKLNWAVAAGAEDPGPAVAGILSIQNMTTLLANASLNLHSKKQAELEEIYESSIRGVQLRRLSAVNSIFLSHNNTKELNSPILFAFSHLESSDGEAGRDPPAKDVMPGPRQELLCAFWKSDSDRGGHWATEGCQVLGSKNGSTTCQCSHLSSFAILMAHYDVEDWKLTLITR
Method: as §1

[3] = target: T3, CD97 (reference without GAIN mutation) expressed on ExpiCHO cells in the mutational study (human, UniProt P48960 21-835); assay: cell-based binding assay: CD97 transiently expressed on ExpiCHO cells, A8 Fab titrated, flow cytometry MFI, 1:1 fit; the same WT curve and value stand in the upper and the lower panel
T3 construct: the whole entry for isoform 1 is named here; also called CD97 GAIN domain
T3 sequence: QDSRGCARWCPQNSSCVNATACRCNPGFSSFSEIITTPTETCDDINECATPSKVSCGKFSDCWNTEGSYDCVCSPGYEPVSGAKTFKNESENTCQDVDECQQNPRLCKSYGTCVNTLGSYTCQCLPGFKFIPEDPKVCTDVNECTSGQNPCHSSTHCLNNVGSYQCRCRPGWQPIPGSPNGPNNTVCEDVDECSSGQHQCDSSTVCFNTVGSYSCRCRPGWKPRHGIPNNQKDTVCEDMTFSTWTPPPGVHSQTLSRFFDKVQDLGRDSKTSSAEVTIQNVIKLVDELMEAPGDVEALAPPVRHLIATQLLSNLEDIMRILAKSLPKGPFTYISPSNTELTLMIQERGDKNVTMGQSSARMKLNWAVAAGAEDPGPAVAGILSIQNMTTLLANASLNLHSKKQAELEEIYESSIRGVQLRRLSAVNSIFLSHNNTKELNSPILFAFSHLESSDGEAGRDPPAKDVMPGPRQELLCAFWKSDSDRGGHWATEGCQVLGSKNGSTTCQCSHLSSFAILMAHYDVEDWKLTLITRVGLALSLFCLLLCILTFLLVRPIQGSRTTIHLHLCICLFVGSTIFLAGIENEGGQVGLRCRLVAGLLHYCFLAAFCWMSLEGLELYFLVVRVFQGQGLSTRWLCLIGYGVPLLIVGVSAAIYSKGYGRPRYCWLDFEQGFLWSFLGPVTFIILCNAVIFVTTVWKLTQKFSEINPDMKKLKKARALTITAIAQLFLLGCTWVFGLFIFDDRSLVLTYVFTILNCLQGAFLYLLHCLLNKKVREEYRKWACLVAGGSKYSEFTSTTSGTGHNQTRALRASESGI
Method: as §1

[4] = target: T2, CD97 (ADGRE5) isoform 1 ectodomain, …; assay: bead-based binding assay: biotinylated CD97 isoform 1 on streptavidin beads, Fab titrated, flow cytometry MFI, 1:1 fit; EXPERIMENT 2
Method: as §1

- binding result [1]: no binding (tested: 1000 nM)
- Kd [2]: 16 nM
- Kd [3]: 45 nM
- Kd [4]: 9.5 nM
B1: Antibody clone A8, Fab format (Fab, V domains shown)
VH: EVQLVESGGGLVQPGGSLRLSCAASGFTISSYSIHWVRQAPGKGLEWVASISPYYGSTSYADSVKGRFTISADTSKNTAYLQMNSLRAEDTAVYYCARSWYYYEQNPYWYQKEEQALDYWGQGTLVTVSS
VL: DIQMTQSPSSLSASVGDRVTITCRASQSVSSAVAWYQQKPGKAPKLLIYSASSLYSGVPSRFSGSRSGTDFTLTISSLQPEDFATYYCQQSVYSPVTFGQGTKVEIKR
notes: Fab; also called wild type A8
